This is an account of results in patent US20160361443A1, “Ultrasound Molecular Imaging With Targeted Biocompatible Microbubbles” (University of Pittsburgh - Of the Commonwealth System of …, priority 2015, published 2016).

Where no end group is shown, it is not given here.

Assay [1] concerns the target rat E-selectin on inflamed (IL-1β-activated) rat heart microvascular endothelial cells / inflamed or post-ischemic rat endothelium (rat) (UniProt P98105). The experiment in a line: cell-based or functional assay.
For assay [2] the target is unchanged. The experiment in a line: parallel plate perfusion chamber, inflamed rat heart microvascular ECs; control microbubble.
For assay [3] the target is unchanged. The assay can be described thus: parallel plate flow system, activated cultured rat ECs; control microbubble.
Assay [4] has the same target. The experiment in a line: parallel plate flow system, normal cultured rat ECs; control microbubble.
Assay [5] concerns E-selectin. The experiment in a line: TNF-α induced E-selectin upregulation in HUVEC cells (immunostaining, electrophoresis gel). The assay is classed as cell-based, human. Conditions: TNFα 20 ng/mL for 4 hr vs without TNFα. The source says:
FIG. 24 presents exempary data of TNF-α induced E-selectin upregulation by immunostaining of HUVEC cells.

Assay [6] has as its target T1, human E-selectin (Homo sapiens, UniProt P16581).
T1 sequence (P16581 22-610): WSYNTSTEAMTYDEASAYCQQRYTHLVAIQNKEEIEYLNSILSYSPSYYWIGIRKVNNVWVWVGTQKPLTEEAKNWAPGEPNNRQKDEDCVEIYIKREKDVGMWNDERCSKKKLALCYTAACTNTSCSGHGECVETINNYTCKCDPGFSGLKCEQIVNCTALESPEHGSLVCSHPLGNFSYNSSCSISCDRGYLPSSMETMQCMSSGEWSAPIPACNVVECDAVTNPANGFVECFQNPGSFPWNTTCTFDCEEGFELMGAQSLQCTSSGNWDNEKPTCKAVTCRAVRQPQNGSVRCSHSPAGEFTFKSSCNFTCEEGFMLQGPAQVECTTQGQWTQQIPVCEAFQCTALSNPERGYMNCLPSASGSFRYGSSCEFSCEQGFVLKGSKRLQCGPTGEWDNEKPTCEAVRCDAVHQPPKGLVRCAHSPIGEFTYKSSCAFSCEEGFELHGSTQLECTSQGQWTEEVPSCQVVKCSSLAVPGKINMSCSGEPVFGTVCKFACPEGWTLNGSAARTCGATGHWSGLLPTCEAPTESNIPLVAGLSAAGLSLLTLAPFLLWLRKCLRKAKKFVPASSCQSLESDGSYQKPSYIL
The following applies: static and flow-cell assays; cited from earlier work.

Assay [7] addresses T1, human E-selectin. The following applies: cited from earlier work.
A further assay concerns ICAM. The experiment in a line: RT-qPCR of heart after LPS injection, ICAM mRNA. The assay is classed as in vivo, rat. The following applies: 4 hours post LPS injection. The method, then:
(§1) Wistar Rats were intraperitoneally injected with lipopolysaccharide (LPS) in normal saline (dose: 1 mg/kg) to induce systemic inflammation. Four hours post-injection, rats were anesthetized and intubated.
(§2) LPS treated and untreated (i.e., baseline) hearts were harvested. RNA extraction and reverse transcriptase real-time quantitative polymerase chain reaction (RT-qPCR) for E-selectin, ICAM and glyceraldehyde 3-phosphate dehydrogenase (GAPDH, a house keeping gene) in the heart were performed. E-selectin and ICAM mRNA expression level were expressed as percent of GAPDH.
(In qPCR the cycle at which signal appears reflects the starting amount.)

Assay [8] has as its system E-selectin. The experiment in a line: RT-qPCR of heart after LPS injection, E-selectin mRNA. The assay is classed as in vivo, rat. Conditions: 4 hours post LPS injection. On the procedure:
as §1, §2

The target of assay [9] is T2, E-selectin (Rattus norvegicus, UniProt P98105).
T2 construct: Immunofluorescent staining in all rats consistently confirmed microvascular E-selectin and ICAM-1 expression in postischemic myocardium; from tissue
T2 sequence (P98105 22-549): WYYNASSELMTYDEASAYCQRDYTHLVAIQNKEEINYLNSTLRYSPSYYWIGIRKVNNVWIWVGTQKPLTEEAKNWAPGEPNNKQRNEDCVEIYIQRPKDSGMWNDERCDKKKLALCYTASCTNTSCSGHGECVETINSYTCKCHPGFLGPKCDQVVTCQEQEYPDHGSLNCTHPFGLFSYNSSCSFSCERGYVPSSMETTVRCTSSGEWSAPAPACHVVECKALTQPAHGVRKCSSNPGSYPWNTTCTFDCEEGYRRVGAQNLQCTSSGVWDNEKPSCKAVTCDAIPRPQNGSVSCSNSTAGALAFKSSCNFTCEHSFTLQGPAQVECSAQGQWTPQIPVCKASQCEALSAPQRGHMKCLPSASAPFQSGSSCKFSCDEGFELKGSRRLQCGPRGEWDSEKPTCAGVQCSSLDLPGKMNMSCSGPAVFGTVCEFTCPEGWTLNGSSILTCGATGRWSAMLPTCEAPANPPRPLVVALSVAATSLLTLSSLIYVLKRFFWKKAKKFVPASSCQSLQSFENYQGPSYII
The experiment in a line: Ultrasound molecular imaging with targeted MB (Mal) in LPS rat inflammation model. The assay is classed as in vivo. The following applies: 2×10^7 MB. On the procedure:
FIG. 26 presents exemplary data comparing myocardial retention of microbubble populations (2×10^7) either with, or without, a targeting ligand in an LPS rat inflammation model. The data were linearized and a two-phase washout model was fitted to obtain the retained MB concentration in the myocardium.
as §1
Each rat received intravenous injection of targeted MB Esel(MAL) and control MB IgG in random order (2×10^7 MB in 200 μL saline followed by a 200 μL saline flush). Baseline contrast ultrasound images were obtained before each microbubble injection and intermittent contrast ultrasound imaging were performed for 20 min to monitor the adhesion dynamics of MB in the myocardium. Acuson Sequoia 512 clinical ultrasound system (Siemens, Mountain View, Calif.) with a 15 L8 linear array transducer was used for imaging in CPS mode at 7 MHz.
Microbubble (MB) signals in the anterior myocardium and in the left ventricular cavity were also analyzed. […] Signal intensity was linearized and a two-phase washout model
was used to calculate the amount of MB retention in the myocardium.

Consider “MBIgG: polymer/albumin double-shell microbubble bearing rat biotinylated immunoglobulin G (non-specific IgG, BD Biosciences) via biotin-streptavidin bridging (antibody)”, for which, in assay [1], the adherent microbubbles per field, intravital microscopy of TNF-α-inflamed rat cremaster microcirculation (control microbubble) was found to be 1.1 MBs/field; the background-subtracted videointensity, postischemic LAD bed (control microbubble) is 1.7 dB; the myocardial videointensity, post-ischemic bed (control microbubble) was found to be 2 dB. The adherent microbubbles per endothelial cell (MB/EC) in assay [2] was determined as 2.3 MB/EC. The adherent microbubbles per endothelial cell (MB/EC) in [3] came out at 2 MB/EC. The substance further gave an adherent microbubbles per endothelial cell (MB/EC) in assay [4] of 2 MB/EC.
Regarding TNFα, the “E-selectin expression (in words)” value with E-selectin [5] is reported as “significant upregulation”.
A word on the IC50: it is the midpoint of a concentration-inhibition curve. With “H2NDITWDQLWDLMK-COOH (H-DITWDQLWDLMK-OH) [AF10166]”, the Neutrophil adhesion entry in the assay with human E-selectin [6] is listed as “blocks neutrophil adhesion”. The Kd value entry with human E-selectin [7] (believed, from phage display library screening) is “low nanomolar range”. In addition, the IC50 in the assay with human E-selectin [7] was 4.4 nM.
In the case of lipopolysaccharide [LPS], the “ICAM mRNA expression” value in the assay with ICAM is on record as 6.09±3.14 % of GAPDH. In the assay on E-selectin [8], the “Esel mRNA expression” value is given as 2.28±1.32 % of GAPDH.
In the case of “targeted MB: Polymer microbubble conjugated to E-selectin targeting peptide by thioether bond (maleimide-thiol chemistry) (CDITWDQLWDLMK; not fully specified (residue 1); also: N-terminal Cys thioether to maleimide linker BM(PEG)3 on microbubble shell)”, the “Myocardial MB concentration, more as compared with control IgG MB injection” value with E-selectin [9] (6 minutes post-injection, 4 h post LPS 1 mg/kg) came out at 185%. For the same substance, in the assay with E-selectin [9] (two-phase washout model fit, 4 h post LPS), the “Retained MB in the myocardium (Ar term) as compared with control MB injection” value was found to be 330%.
